The values that follow come from article PMC10761869 (Nature Communications, 2024).

Assay [1] deals with (Sgt2-C258)XL2, BMH-crosslinked Sgt2-C258 dimer (UniProt Q12118). The experiment in a line: cross-linking; Bos1^Bpa translated with 35S-methionine in S30 lysate in the presence of Sgt2 or Sgt2-C258; complexes purified via His6 on Sgt2, treated with 1 mM BMH; UV crosslinking, SDS-PAGE, autoradiography; time courses after adding 15–20 µM CaM (1 mM Ca(OAc)2) or 0.75 µM Get3 with 2 mM ATP, with or without 0.75 µM Get4/5.

In assay [2] the target is His6-Sgt2 (wildtype Sgt2) (UniProt Q12118). The assay is described as above.
Assay [3] addresses His6-Sgt2-G258C, not crosslinked (UniProt Q12118). Briefly: cross-linking; purified Sgt2-C258-TA^Bpa complex incubated with 1 mM BMH at RT, quenched with 10 mM DTT; anti-His immunoblot. (In general: In western blotting, separated proteins are transferred to a membrane and probed.)
For assay [4] the target is unchanged. The experiment in a line: cross-linking; intradimer crosslink of Sgt2 single cysteine variants with the thiol-specific homo-bifunctional crosslinker bismaleimidohexane (BMH).
Assay [5] addresses Ssa1^TMR, TMR-labeled Ssa1(D430C) (yeast) (UniProt P10591). The experiment in a line: FRET or BRET; 20 nM Bos1^BFL with 500 nM Ssa1^TMR, with or without 500 nM Ydj1, 5 min; excitation 485 nm; chased with cpSRP43 or a five-fold excess of unlabeled Ssa1. On the technique in general: In BRET a luciferase serves as donor, and the signal depends on an acceptor being close.
The target of assay [6] is Sgt2^BFL (His6-Sgt2-LPATGG labelled with BODIPY-FL at the C-terminus). The experiment in a line: FRET or BRET; 50–150 nM purified Sgt2^BFL-TA^CM complex in GET buffer chased with 14–28 µM cpSRP43; recovery of donor fluorescence (excitation 360 nm, emission 460 nm); TA dissociation.
For assay [7] the target is unchanged. The experiment in a line: FRET or BRET; 50–150 nM purified Sgt2^BFL-Bos1^CM complex in GET buffer chased with 2.5–30 µM CaM or with unlabeled Sgt2; recovery of donor fluorescence; intrinsic koff by extrapolation of the CaM concentration dependence to the Y-axis.
For assay [8] the target is unchanged. The experiment in a line: FRET or BRET; 50–150 nM purified Sgt2^BFL-TA^CM complex in GET buffer chased with 14–28 µM cpSRP43; recovery of donor fluorescence (excitation 360 nm, emission 460 nm); TA dissociation. The source holds these as a separate data set.
Another assay has as its target T1, Ssa1 (tagless) (yeast, UniProt P10591 1-642).
T1 construct: Ssa1, the major cytosolic Hsp70 in yeast; also called Hsp70; unlabeled Ssa1; source: recombinant His6-SUMO fusion, purified (Ni Sepharose, SUMO protease, MonoQ)
The experiment in a line: pull-down; TA (0.3 µM) loaded on 3 µM Ssa1 with 2 mM ATP, with or without 3 µM Ydj1, then 0.6 µM His6-Sgt2; Talon resin, GET buffer (150 mM KOAc) with 5 mM imidazole wash. Particulars: both partners purified.

The target in assay [9] is Bos1^Bpa, in vitro translated (Strep3-tagged, 35S-methionine). Briefly: pull-down + cross-linking; Bos1^Bpa translated in S30 extract in the presence of 2 µM His6-Sgt2 or Sgt2ΔN; pulldown on the strep3-tagged TA; UV crosslinking, autoradiography.
For a further assay, the target named is T2, Ssa1 (yeast, UniProt P10591 1-642).
T2 construct: Ssa1, the major cytosolic Hsp70 of yeast; also called Hsp70; source: recombinant His6-SUMO fusion, purified (Ni Sepharose, SUMO protease, MonoQ)
Briefly: pull-down; 0.6 µM His6-Sgt2 added for 1 min to a preformed Ssa1-TA complex (0.3 µM TA, 3 µM Ssa1, 2 mM ATP, with or without 3 µM Ydj1) in GET buffer; captured on Talon resin at 4 °C, washed with GET buffer + 5 mM imidazole, eluted with 300 mM imidazole; silver stain and anti-Strep western blot. The settings on record: both partners purified.

Assay [10] has as its target T3, His6-Sgt2 (wildtype Sgt2), Q12118.
T3 chain: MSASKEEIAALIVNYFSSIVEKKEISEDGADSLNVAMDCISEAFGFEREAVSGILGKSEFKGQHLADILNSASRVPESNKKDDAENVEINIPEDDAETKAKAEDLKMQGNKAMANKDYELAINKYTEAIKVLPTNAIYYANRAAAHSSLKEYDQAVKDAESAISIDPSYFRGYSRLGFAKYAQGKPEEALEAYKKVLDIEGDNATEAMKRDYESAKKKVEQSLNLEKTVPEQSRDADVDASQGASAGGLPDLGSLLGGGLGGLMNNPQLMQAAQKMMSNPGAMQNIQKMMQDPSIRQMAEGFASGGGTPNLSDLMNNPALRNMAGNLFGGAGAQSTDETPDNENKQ

T2 sequence (P10591 whole entry, the tested form may be a part): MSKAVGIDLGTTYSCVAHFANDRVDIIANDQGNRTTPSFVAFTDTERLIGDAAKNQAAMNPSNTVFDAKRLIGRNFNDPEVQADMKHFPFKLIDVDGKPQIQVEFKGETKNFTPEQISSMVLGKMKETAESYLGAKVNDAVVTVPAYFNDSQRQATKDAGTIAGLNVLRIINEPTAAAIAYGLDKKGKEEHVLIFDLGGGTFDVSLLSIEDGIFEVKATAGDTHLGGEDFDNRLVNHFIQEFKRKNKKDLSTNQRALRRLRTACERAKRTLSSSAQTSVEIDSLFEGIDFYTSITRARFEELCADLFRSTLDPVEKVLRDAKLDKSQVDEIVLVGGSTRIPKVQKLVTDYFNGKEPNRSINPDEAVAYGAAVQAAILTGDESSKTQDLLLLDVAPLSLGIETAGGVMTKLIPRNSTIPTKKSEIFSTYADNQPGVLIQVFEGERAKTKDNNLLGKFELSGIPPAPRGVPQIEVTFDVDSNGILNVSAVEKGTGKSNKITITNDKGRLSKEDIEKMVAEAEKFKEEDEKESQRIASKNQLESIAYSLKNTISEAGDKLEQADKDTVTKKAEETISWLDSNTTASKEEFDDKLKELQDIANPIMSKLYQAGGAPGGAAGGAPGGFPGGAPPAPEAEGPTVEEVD
T1 sequence (P10591 whole entry, the tested form may be a part): as above

As to “Bos1^Bpa, in vitro translated (Strep3-tagged, 35S-methionine)”, the rate constant of loss of the TA crosslink to (Sgt2-C258)XL2 on transfer to Get3 with Get4/5 in assay [1] stood at 3.5 min⁻¹. Also, the apparent rate constant of TA loss from Sgt2 to CaM (20 µM CaM) in assay [2] is 0.78 min⁻¹.

Molecule “His6-Sgt2-G258C, not crosslinked (from UniProt Q12118 1-346) (natural protein)” came in with a percent crosslinked by BMH (intradimer, in the complex with TA) in [3] of 50%. In assay [4], this molecule yielded a BMH crosslinking efficiency (intradimer) of 46%.

In assay [5], Bos1^BFL (BFL-labeled Bos1) showed a koff, slow phase (~50% of the fluorescence change) of 0.0005 s⁻¹.

Broadly, the koff is the rate constant with which the complex falls apart. For the molecule “Bos1^CM (Strep-SUMO-Bos1 labelled with coumarin)”, the koff in [6] is 0.000283 to 0.000317 s⁻¹; in assay [7], 0.0003 s⁻¹; in assay [8], 0.0003 s⁻¹. In addition, the apparent rate constant of Bos1 release from Sgt2 with 30 µM CaM in [7] is 0.91 min⁻¹.

B1: His6-Sgt2 (wildtype Sgt2) (natural protein, UniProt Q12118 1-346, looked up)
chain: MSASKEEIAALIVNYFSSIVEKKEISEDGADSLNVAMDCISEAFGFEREAVSGILGKSEFKGQHLADILNSASRVPESNKKDDAENVEINIPEDDAETKAKAEDLKMQGNKAMANKDYELAINKYTEAIKVLPTNAIYYANRAAAHSSLKEYDQAVKDAESAISIDPSYFRGYSRLGFAKYAQGKPEEALEAYKKVLDIEGDNATEAMKRDYESAKKKVEQSLNLEKTVPEQSRDADVDASQGASAGGLPDLGSLLGGGLGGLMNNPQLMQAAQKMMSNPGAMQNIQKMMQDPSIRQMAEGFASGGGTPNLSDLMNNPALRNMAGNLFGGAGAQSTDETPDNENKQ
notes: Sgt2, cochaperone of the GET pathway; The functional rows were measured with Sgt2 doubly labelled with ATTO550/ATTO647N at the C-terminus (His6-Sgt2-LPATGG ligated to GGGC-dye by sortase A); also called Sgt2-WT; unlabeled Sgt2; source: cells lysed with BugBuster
In the case of B1, the binding result with Ssa1 (tagless) is on record as “binds”. Besides, in assay [9], the percent of Bos1^Bpa crosslinked was above 43%.

B2: His6-tagged wildtype Sgt2 (natural protein, S. cerevisiae (printed as ScSgt2), UniProt Q12118 1-346, looked up)
chain: MSASKEEIAALIVNYFSSIVEKKEISEDGADSLNVAMDCISEAFGFEREAVSGILGKSEFKGQHLADILNSASRVPESNKKDDAENVEINIPEDDAETKAKAEDLKMQGNKAMANKDYELAINKYTEAIKVLPTNAIYYANRAAAHSSLKEYDQAVKDAESAISIDPSYFRGYSRLGFAKYAQGKPEEALEAYKKVLDIEGDNATEAMKRDYESAKKKVEQSLNLEKTVPEQSRDADVDASQGASAGGLPDLGSLLGGGLGGLMNNPQLMQAAQKMMSNPGAMQNIQKMMQDPSIRQMAEGFASGGGTPNLSDLMNNPALRNMAGNLFGGAGAQSTDETPDNENKQ
notes: Sgt2 (ScSgt2); also called His6-Sgt2; His-Sgt2-WT
With B2, the binding result with Ssa1 was “binds”.

B3: His6-Sgt2ΔN (residues 96–346) (domain or fragment)
chain: AETKAKAEDLKMQGNKAMANKDYELAINKYTEAIKVLPTNAIYYANRAAAHSSLKEYDQAVKDAESAISIDPSYFRGYSRLGFAKYAQGKPEEALEAYKKVLDIEGDNATEAMKRDYESAKKKVEQSLNLEKTVPEQSRDADVDASQGASAGGLPDLGSLLGGGLGGLMNNPQLMQAAQKMMSNPGAMQNIQKMMQDPSIRQMAEGFASGGGTPNLSDLMNNPALRNMAGNLFGGAGAQSTDETPDNENKQ
For B3, in assay [9], the percent of Bos1^Bpa crosslinked turned out to be 6%.

SEQTITSINKRVFKDKLVFWIALILLIIGIYYVLKWLR (modifications not checked) [Strep-SUMO-Bos1 (model TA substrate Bos1), unlabelled] returned an equilibrium of Sgt2 closing (K closing; µs-ALEX smFRET of doubly labelled Sgt2^ATTO550/ATTO647N, mpH2MM) in the purified Sgt2-TA complex; apo-Sgt2 0.221 in assay [10] of 0.597.
